Measured values reported in the supplement of paper PMC10065799, “High-throughput profiling of sequence recognition by tyrosine kinases and SH2 domains using bacterial peptide display” (eLife, 2023).

Assays:
AncSZ = experiment: phosphorylation enrichment, bacterial display (enrichment ratio); higher = better substrate or ligand; peptides without Tyr show the background
EPHB1 = EPHB1 (UniProt P54762); experiment: as above
EPHB2 = EPHB2 (UniProt P29323); experiment: as above
FGFR1 = FGFR1 (UniProt P11362); experiment: as above
FGFR1, sequence (P11362 whole entry, looked up): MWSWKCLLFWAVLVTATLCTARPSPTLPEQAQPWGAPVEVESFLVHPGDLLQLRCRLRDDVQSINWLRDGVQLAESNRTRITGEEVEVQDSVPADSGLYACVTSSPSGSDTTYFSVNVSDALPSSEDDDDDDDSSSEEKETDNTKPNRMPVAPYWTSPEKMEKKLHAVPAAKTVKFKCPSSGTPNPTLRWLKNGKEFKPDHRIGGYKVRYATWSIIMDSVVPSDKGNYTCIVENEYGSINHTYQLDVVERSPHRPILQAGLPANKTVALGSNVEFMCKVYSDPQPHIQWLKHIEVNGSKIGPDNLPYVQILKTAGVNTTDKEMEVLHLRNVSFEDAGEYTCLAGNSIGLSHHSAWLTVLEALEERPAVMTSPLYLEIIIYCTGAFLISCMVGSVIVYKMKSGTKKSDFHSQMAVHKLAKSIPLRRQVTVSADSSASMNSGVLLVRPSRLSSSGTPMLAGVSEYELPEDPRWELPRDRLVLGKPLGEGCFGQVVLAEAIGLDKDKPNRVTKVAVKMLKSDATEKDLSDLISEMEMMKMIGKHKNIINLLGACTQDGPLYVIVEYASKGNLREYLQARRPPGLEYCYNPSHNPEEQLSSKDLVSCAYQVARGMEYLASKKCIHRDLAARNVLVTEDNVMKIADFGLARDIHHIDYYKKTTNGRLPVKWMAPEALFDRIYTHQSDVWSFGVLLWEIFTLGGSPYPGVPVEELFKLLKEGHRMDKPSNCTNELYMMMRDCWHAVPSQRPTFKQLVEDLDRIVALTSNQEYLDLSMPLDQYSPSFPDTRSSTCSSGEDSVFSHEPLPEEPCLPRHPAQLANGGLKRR

FGFR3 = FGFR3 (UniProt P22607); experiment: as above
Fer (mouse) = experiment: as above
Fes = Fes (UniProt P07332); experiment: as above
Fes, sequence (P07332 whole entry, looked up): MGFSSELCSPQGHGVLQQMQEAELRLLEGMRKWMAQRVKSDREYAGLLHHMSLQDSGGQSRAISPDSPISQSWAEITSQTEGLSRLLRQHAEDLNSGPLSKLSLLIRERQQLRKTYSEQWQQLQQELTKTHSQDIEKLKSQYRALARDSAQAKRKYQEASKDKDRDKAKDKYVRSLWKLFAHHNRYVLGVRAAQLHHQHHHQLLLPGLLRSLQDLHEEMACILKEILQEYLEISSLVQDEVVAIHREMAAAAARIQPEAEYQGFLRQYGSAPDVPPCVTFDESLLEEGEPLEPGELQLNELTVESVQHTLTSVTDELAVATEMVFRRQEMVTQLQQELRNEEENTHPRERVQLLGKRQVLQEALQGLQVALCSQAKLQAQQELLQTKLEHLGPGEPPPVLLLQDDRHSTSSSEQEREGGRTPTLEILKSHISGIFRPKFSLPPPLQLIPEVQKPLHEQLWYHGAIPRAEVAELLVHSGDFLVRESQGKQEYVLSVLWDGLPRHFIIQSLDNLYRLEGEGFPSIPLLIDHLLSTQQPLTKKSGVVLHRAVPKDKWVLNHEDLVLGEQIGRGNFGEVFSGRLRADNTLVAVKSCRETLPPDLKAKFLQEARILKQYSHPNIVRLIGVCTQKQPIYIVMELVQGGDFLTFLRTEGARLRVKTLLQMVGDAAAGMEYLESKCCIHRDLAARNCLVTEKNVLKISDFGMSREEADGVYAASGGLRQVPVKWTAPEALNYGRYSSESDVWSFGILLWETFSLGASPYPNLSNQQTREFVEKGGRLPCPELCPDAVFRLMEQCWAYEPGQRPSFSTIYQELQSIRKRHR

Fyn = Fyn (UniProt P06241); experiment: as above
Fyn, sequence (P06241 whole entry, looked up): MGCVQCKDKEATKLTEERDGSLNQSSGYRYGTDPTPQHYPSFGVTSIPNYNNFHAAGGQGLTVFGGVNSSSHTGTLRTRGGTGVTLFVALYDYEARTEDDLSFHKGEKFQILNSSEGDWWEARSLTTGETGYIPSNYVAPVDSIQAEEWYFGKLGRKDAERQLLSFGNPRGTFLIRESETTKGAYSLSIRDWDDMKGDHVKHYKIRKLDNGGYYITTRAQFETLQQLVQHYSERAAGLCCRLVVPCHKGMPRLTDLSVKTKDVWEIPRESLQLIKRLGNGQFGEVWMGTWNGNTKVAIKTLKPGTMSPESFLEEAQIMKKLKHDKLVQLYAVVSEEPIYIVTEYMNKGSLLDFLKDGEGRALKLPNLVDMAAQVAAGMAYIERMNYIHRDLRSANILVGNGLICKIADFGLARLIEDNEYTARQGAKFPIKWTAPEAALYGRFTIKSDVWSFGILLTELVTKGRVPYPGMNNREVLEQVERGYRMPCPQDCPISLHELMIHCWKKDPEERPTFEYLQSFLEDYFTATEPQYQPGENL

Hck = Hck (UniProt P08631); experiment: as above
Hck, sequence (P08631 whole entry, looked up): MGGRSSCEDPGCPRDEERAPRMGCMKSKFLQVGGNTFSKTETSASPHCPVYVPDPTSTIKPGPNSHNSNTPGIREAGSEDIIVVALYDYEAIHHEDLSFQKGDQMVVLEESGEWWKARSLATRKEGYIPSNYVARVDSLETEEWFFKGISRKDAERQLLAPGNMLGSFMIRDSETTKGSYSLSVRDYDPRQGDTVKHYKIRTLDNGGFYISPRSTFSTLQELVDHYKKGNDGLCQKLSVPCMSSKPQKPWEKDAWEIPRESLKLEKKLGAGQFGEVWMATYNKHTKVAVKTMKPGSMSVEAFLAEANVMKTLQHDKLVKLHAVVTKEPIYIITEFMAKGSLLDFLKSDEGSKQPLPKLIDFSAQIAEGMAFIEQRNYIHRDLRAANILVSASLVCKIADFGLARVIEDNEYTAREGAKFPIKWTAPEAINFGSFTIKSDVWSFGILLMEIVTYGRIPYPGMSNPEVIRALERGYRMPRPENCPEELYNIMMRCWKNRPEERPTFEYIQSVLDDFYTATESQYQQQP

Jak2 = Jak2 (UniProt O60674); experiment: as above
Jak2, sequence (O60674 whole entry, looked up): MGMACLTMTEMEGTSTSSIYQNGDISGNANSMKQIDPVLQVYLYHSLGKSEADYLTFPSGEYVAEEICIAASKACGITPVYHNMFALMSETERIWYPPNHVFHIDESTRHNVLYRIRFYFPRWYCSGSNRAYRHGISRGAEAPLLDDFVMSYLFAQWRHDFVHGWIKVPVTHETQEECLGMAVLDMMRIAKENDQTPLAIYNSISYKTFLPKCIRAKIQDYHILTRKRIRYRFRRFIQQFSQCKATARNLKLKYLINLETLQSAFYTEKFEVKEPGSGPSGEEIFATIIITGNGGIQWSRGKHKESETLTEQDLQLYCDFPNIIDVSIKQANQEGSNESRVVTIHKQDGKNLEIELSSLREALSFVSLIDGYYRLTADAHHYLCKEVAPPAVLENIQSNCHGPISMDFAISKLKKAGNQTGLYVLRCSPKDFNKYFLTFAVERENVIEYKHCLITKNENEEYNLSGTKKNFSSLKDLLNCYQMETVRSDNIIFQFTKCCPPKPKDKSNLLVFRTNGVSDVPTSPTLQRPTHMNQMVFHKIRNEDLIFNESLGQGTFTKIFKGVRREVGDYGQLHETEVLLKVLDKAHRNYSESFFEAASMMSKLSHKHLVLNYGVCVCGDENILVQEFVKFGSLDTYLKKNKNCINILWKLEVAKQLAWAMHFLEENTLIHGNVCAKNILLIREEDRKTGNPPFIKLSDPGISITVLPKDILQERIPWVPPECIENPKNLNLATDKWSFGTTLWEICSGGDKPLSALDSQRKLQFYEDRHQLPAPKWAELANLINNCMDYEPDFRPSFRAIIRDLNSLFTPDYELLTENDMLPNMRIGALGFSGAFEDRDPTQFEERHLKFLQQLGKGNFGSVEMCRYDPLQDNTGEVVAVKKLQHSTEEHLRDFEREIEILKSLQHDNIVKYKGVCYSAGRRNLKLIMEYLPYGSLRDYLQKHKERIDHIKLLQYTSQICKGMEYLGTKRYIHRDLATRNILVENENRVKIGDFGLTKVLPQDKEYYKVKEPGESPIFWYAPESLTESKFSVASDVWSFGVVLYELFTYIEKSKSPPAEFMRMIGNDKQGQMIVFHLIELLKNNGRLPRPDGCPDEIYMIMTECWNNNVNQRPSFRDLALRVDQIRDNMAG

MERTK = MERTK (UniProt Q12866); experiment: as above
MERTK, sequence (Q12866 whole entry, looked up): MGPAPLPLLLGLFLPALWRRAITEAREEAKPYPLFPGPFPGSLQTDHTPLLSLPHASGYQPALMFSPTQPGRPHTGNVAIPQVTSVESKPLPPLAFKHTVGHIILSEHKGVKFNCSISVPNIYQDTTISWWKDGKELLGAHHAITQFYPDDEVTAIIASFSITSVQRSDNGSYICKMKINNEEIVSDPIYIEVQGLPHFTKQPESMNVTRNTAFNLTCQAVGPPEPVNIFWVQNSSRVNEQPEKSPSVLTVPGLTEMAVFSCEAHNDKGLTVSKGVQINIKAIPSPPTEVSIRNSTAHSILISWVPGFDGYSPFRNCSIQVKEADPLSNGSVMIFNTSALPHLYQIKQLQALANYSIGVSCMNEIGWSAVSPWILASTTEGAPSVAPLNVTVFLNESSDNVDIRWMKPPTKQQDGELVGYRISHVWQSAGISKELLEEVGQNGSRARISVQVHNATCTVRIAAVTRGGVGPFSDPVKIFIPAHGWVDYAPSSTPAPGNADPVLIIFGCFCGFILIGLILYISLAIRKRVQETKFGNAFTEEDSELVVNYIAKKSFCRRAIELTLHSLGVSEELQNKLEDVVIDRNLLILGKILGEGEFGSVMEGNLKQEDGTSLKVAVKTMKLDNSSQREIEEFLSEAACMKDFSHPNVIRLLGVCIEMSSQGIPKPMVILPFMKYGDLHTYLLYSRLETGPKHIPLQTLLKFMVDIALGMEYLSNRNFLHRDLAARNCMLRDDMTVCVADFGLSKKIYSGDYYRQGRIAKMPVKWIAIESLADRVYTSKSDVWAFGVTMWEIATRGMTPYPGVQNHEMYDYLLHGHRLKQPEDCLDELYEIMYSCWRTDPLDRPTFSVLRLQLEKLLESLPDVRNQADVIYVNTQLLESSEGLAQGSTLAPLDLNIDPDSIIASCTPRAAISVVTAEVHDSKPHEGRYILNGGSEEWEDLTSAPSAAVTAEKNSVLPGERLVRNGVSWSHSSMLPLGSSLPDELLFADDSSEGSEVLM

c-Abl (mouse) = experiment: as above
c-Src = experiment: as above
Grb2 SH2 = Grb2 SH2 (UniProt P62993); experiment: SH2 binding enrichment of the phosphorylated peptide, bacterial display (enrichment ratio); higher = better substrate or ligand; peptides without Tyr show the background
Grb2 SH2, sequence (P62993 whole entry, looked up): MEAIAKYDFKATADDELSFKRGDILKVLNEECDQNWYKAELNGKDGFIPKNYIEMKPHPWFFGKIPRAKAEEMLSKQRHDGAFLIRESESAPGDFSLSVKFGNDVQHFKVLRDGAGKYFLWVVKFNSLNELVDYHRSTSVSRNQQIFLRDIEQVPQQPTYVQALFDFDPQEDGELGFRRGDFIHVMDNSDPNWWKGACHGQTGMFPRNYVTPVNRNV

SHP2-C SH2 = experiment: as above
c-Src SH2 = experiment: as above
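For SH2 binding enrichment of the phosphorylated peptide, bacterial display in this document: peptide library displayed on the E. coli surface as eCPX fusions, selected cells deep-sequenced, score is each peptide's frequency after selection divided by its frequency in the input.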
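For phosphorylation enrichment, bacterial display in this document: 11-residue human phosphosite peptides and single-mutation variants displayed on the E. coli surface, counted by deep sequencing, each peptide's frequency after selection divided by its frequency in the unselected input library; frequency after pTyr selection over input frequency; kinase dosed for 20-30% of maximal phosphorylation in three min.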

Row | Sequence | phosphorylation enrichment (AncSZ) | phosphorylation enrichment (EPHB1) | phosphorylation enrichment (EPHB2) | phosphorylation enrichment (FGFR1) | phosphorylation enrichment (FGFR3) | phosphorylation enrichment (Fer (mouse)) | phosphorylation enrichment (Fes) | phosphorylation enrichment (Fyn) | phosphorylation enrichment (Hck) | phosphorylation enrichment (Jak2) | phosphorylation enrichment (MERTK) | phosphorylation enrichment (c-Abl (mouse)) | phosphorylation enrichment (c-Src) | SH2 binding enrichment (Grb2 SH2) | SH2 binding enrichment (SHP2-C SH2) | SH2 binding enrichment (c-Src SH2)
1 | VGTKRYMAPEV [ACVRL1_Y375] | 0.611 | 0.351 | 0.428 | 0.413 | 0.446 | 0.395 | 0.61 | 0.361 | 0.407 | 0.637 | 0.389 | 0.532 | 0.373 | 0.804 | 0.616 | 0.511
2 | VHNLDYYKQTT [FGFR3_Y647_K650Q] | 0.934 | 0.686 | 0.617 | 1.36 | 1.34 | 0.525 | 0.955 | 0.586 | 0.485 | 0.945 | 0.607 | 0.555 | 0.697 | 0.984 | 0.752 | 0.49
3 | VIESSYTSADG [DHCR7_Y382_C380S] | 0.892 | 0.468 | 0.596 | 0.531 | 0.627 | 0.519 | 0.961 | 0.551 | 0.476 | 0.873 | 0.596 | 0.618 | 0.546 | 0.894 | 0.861 | 4.23
4 | VILARYGPAWR [CYP2D6_Y124_F120I] | 1.09 | 0.513 | 0.614 | 0.608 | 0.608 | 0.407 | 1.09 | 0.527 | 0.602 | 0.808 | 0.482 | 0.603 | 0.503 | 0.828 | 0.547 | 0.385
5 | VKANTYEKFWP [GATM_Y100_YF] | 0.627 | 0.74 | 0.374 | 0.317 | 0.487 | 0.595 | 0.793 | 1.47 | 1.07 | 0.717 | 1.8 | 0.704 | 2.69 | 0.931 | 0.569 | 0.946
6 | VKKNRYKDILP [PTPN12_Y64] | 0.709 | 0.47 | 0.471 | 0.519 | 0.769 | 0.511 | 0.988 | 0.466 | 0.507 | 0.839 | 0.592 | 0.874 | 0.653 | 0.753 | 0.704 | 0.766
7 | VKRNRYKDILP [PTPN12_Y64_K61R] | 0.65 | 0.575 | 0.695 | 0.463 | 0.47 | 0.49 | 0.561 | 0.689 | 0.579 | 0.528 | 0.553 | 0.514 | 0.628 | 0.541 | 0.364 | 0.483
8 | VLRRVYVDFEG [KMT2B_Y1707] | 0.842 | 0.424 | 0.518 | 0.478 | 0.613 | 0.403 | 0.909 | 0.472 | 0.502 | 0.774 | 0.435 | 0.629 | 0.602 | 1.08 | 0.884 | 1.41
9 | VLTPKYRGGGG [HBA1_Y141_S139P] | 0.498 | 0.328 | 0.372 | 0.348 | 0.413 | 0.364 | 0.464 | 0.363 | 0.32 | 0.335 | 0.35 | 0.421 | 0.34 | 1.03 | 0.691 | 0.557
10 | VLTSKYHGGGG [HBA1_Y141_R142H] | 0.475 | 0.336 | 0.365 | 0.772 | 0.304 | 0.315 | 0.549 | 0.364 | 0.391 | 0.509 | 0.494 | 0.617 | 0.407 | 0.835 | 0.715 | 0.522
11 | VNFDDYTVNLG [GFPT1_Y367] | 1.39 | 0.787 | 0.691 | 0.705 | 0.741 | 0.493 | 1.2 | 0.833 | 0.528 | 1.39 | 0.487 | 0.69 | 1.19 | 0.651 | 0.715 | 0.408
12 | VNFGAYINFFK [GLB1_Y488_D491Y_YF] | 1.38 | 0.586 | 0.558 | 0.663 | 0.963 | 0.624 | 1.75 | 0.441 | 0.495 | 1.87 | 0.57 | 1.49 | 0.717 | 0.918 | 0.784 | 0.611
13 | VNKLVYENING [FRS2_Y306] | 0.665 | 4.71 | 0.75 | 0.52 | 0.454 | 3.63 | 0.8 | 0.95 | 2.67 | 0.539 | 1.64 | 0.524 | 1.78 | 23.9 | 2.03 | 6.33
14 | VPVDGYISGLL [PAK6_Y81_M76V] | 0.911 | 0.75 | 0.85 | 0.568 | 0.656 | 0.559 | 1.01 | 0.519 | 0.542 | 1.18 | 0.602 | 0.745 | 0.657 | 0.893 | 0.568 | 0.573
15 | VPVNGYQPVTA [ROR2_Y824_P828T] | 0.492 | 0.392 | 0.414 | 0.375 | 0.535 | 0.336 | 0.535 | 0.541 | 0.348 | 0.494 | 0.392 | 0.516 | 0.309 | 0.846 | 0.635 | 0.6
16 | VQDPAYLRDID [OPRK1_Y369] | 1.16 | 0.45 | 0.657 | 0.533 | 0.708 | 0.465 | 1.13 | 0.425 | 0.567 | 1.24 | 0.468 | 0.905 | 0.425 | 1.14 | 1.04 | 0.564
17 | VSYDEYRYRSV [CFTR_Y515] | 0.754 | 0.485 | 0.417 | 0.455 | 0.484 | 0.381 | 0.942 | 0.633 | 0.586 | 0.71 | 0.428 | 0.667 | 0.743 | 0.978 | 0.822 | 1.45

Row | Sequence | phosphorylation enrichment (AncSZ) | phosphorylation enrichment (EPHB1) | phosphorylation enrichment (EPHB2) | phosphorylation enrichment (FGFR1) | phosphorylation enrichment (FGFR3) | phosphorylation enrichment (Fer (mouse)) | phosphorylation enrichment (Fes) | phosphorylation enrichment (Fyn) | phosphorylation enrichment (Hck) | phosphorylation enrichment (Jak2) | phosphorylation enrichment (MERTK) | phosphorylation enrichment (c-Abl (mouse)) | phosphorylation enrichment (c-Src) | SH2 binding enrichment (Grb2 SH2) | SH2 binding enrichment (SHP2-C SH2) | SH2 binding enrichment (c-Src SH2)
18 | VTAALYGCLYE [BTD_Y536_R538C] | 1.34 | 1.34 | 1.47 | 0.558 | 0.825 | 2.67 | 1.43 | 5.14 | 4.01 | 1.24 | 2.11 | 0.954 | 4.26 | 0.729 | 0.564 | 0.547
19 | VTHKEYFIFLE [CAMKV_Y95_R92H] | 1.08 | 1.13 | 1.36 | 2.2 | 1.87 | 0.596 | 1.36 | 0.623 | 0.54 | 1.29 | 0.516 | 0.755 | 1.29 | 1.78 | 1.98 | 1.32
20 | VTVLDYDKTGK [SYT1_Y365_I368T] | 0.591 | 0.365 | 0.46 | 0.463 | 0.439 | 0.411 | 0.712 | 0.442 | 0.426 | 0.517 | 0.335 | 0.452 | 0.398 | 0.737 | 0.511 | 0.408
21 | VVEYGYEFFAK [PPP1CB_Y254_D252Y] | 2.57 | 0.798 | 0.82 | 0.762 | 0.995 | 0.835 | 1.56 | 0.609 | 0.72 | 1.47 | 0.601 | 1.09 | 0.719 | 0.942 | 0.675 | 0.946
22 | VVIMLYGVDSR [PKD1_Y3143_G3139V] | 1.29 | 0.879 | 0.72 | 0.545 | 0.924 | 0.682 | 1.57 | 0.592 | 0.594 | 1.35 | 0.399 | 1.04 | 0.524 | 0.981 | 0.826 | 0.645
23 | VVLVSYVPSSQ [SH2B1_Y624] | 0.784 | 0.557 | 0.454 | 0.506 | 0.703 | 0.388 | 0.874 | 0.452 | 0.433 | 0.751 | 0.424 | 0.614 | 0.336 | 1.51 | 1.4 | 0.95
24 | VYAADYYKLLG [ROR2_Y645] | 1.28 | 2.38 | 1.78 | 12.8 | 10.1 | 0.516 | 0.944 | 1.01 | 1.28 | 7.96 | 5.31 | 1.99 | 2.26 | 0.981 | 0.46 | 0.789
25 | VYYYSYLLKNH [PTEN_Y180] | 1.48 | 1.72 | 1.07 | 4.67 | 3.68 | 0.82 | 1.33 | 1.12 | 1.74 | 2.14 | 3.89 | 2.84 | 1.63 | 0.965 | 0.941 | 0.847
26 | WASGIYFVPKG [APBB1IP_Y340_R335W_YF] | 2.81 | 10.1 | 10 | 4.77 | 4.26 | 2.87 | 0.993 | 7.44 | 7.16 | 7.69 | 9 | 28.7 | 5.32 | 1.29 | 1.17 | 0.848
27 | WKKEIYEESST [MOCS2_Y170] | 1.04 | 0.422 | 0.603 | 2.85 | 0.661 | 0.471 | 1.17 | 0.424 | 0.488 | 1.18 | 0.378 | 0.83 | 0.485 | 0.776 | 0.535 | 0.448
28 | WQQQSYLDSEI [CTNNB1_Y30_G34E] | 0.792 | 0.512 | 0.557 | 0.397 | 0.669 | 0.514 | 0.854 | 0.437 | 0.444 | 0.96 | 0.377 | 0.581 | 0.421 | 0.992 | 0.707 | 0.49
29 | YAADYYKLLGN [ROR2_Y646] | 1.1 | 0.963 | 0.863 | 12.5 | 9.3 | 0.634 | 0.993 | 0.452 | 0.808 | 4.53 | 1.47 | 0.769 | 0.908 | 0.683 | 0.467 | 0.504
30 | YAKSVYWDNTL [NUP107_Y296_E298D] | 0.848 | 0.621 | 0.515 | 0.515 | 0.576 | 0.871 | 0.839 | 0.599 | 0.678 | 0.69 | 0.435 | 0.557 | 0.736 | 0.858 | 0.9 | 0.587
31 | YDCGMYSHLQG [LGR4_Y848] | 1.47 | 1.5 | 1.29 | 1.04 | 1 | 2.87 | 1.21 | 2.36 | 5.59 | 0.944 | 7.03 | 2.38 | 3.69 | 1.03 | 0.811 | 2.85
32 | YDGKDYIALNE [HLA-A_Y147] | 1.41 | 1.06 | 0.792 | 0.843 | 0.953 | 0.551 | 1.27 | 0.532 | 0.583 | 1.18 | 0.457 | 0.909 | 0.48 | 0.692 | 0.604 | 0.452
33 | YEEDSYVTRSQ [RET_Y905_K907T] | 1.21 | 0.59 | 0.565 | 0.604 | 0.964 | 0.548 | 1.12 | 0.499 | 0.543 | 1.04 | 0.468 | 0.69 | 0.496 | 0.906 | 0.628 | 2.16
